In PMC5555194, “Disease-linked mutations in factor H reveal pivotal role of cofactor activity in self-surface–selective regulation of complement activation” (The Journal of Biological Chemistry, 2017) one finds Kd data, which are given here for four molecules.

Where a chain is given by its changes, count along the chain named. Names may count otherwise. “And” between values parts separate entries of the source, which are not always exact repeats. Equal values may be shown once.

For test [1], the target named is T1, C3b (human, UniProt P01024 23-667; P01024 749-1663).
T1 construct: Amine-coupled to the sensor chip; source: bought: Complement Technology (plasma-derived, human)
T1 sequence (P01024 23-667, chain 1 of 2): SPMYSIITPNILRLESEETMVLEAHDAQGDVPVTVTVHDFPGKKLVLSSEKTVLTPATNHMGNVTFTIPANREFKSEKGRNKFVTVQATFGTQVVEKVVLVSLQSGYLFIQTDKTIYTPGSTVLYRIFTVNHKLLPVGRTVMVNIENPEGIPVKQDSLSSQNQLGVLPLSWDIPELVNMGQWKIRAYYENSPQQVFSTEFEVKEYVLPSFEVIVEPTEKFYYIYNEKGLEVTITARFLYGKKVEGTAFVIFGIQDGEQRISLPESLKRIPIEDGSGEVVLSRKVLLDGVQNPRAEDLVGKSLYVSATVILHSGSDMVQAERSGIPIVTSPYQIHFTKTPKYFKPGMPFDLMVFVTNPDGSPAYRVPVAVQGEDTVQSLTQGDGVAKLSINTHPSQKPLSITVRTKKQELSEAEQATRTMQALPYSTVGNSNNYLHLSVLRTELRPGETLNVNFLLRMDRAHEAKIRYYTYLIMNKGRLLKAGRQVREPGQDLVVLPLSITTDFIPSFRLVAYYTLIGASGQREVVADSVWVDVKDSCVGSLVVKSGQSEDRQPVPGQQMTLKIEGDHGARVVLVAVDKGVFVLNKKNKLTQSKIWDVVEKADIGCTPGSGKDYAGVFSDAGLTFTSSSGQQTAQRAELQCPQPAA
T1 sequence (P01024 749-1663, chain 2 of 2): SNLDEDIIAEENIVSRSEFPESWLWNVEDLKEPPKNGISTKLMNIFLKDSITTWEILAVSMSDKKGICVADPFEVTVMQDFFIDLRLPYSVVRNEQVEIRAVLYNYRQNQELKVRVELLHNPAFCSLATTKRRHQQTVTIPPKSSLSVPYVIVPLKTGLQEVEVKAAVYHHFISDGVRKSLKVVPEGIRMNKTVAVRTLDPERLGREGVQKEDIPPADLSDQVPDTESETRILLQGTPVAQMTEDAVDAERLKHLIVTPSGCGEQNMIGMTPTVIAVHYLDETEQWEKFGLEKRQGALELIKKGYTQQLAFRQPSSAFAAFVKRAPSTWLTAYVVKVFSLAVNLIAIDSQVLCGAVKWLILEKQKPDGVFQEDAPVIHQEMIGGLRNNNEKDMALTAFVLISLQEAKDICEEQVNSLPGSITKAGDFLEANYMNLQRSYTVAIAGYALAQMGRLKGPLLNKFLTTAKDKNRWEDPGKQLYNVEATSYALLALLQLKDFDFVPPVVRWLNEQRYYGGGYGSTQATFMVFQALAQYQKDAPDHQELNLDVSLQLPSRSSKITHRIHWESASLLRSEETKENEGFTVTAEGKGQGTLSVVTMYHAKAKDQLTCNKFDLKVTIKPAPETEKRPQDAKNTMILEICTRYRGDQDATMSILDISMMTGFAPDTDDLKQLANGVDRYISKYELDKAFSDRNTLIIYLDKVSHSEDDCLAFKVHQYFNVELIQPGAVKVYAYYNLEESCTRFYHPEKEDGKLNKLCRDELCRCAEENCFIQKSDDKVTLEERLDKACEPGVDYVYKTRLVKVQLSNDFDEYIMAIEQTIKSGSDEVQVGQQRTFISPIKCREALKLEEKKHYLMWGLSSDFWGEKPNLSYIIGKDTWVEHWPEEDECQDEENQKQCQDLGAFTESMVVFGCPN
Put plainly: SPR; C3b amine-coupled to a Biacore C1 chip; dilution series of CFH (from 2.5 to 0.019 uM), preincubated with or without a 2-fold molar excess of PspCN, flowed over; Biacore T200, 25 °C, 10 mM HEPES, 150 mM NaCl, 0.05% P20; 1:1 steady-state model; three experiments on different chips. The note with it: both partners purified.

Test [2] deals with T1, C3b. Described as above. To be noted: both partners purified. The source holds these as a separate data set.

B1: I62-CFH (recombinant human complement factor H, variant Ile-62, Tyr-402, Asp-936) (natural protein, UniProt P08603 19-1231, looked up)
chain: EDCNELPPRRNTEILTGSWSDQTYPEGTQAIYKCRPGYRSLGNIIMVCRKGEWVALNPLRKCQKRPCGHPGDTPFGTFTLTGGNVFEYGVKAVYTCNEGYQLLGEINYRECDTDGWTNDIPICEVVKCLPVTAPENGKIVSSAMEPDREYHFGQAVRFVCNSGYKIEGDEEMHCSDDGFWSKEKPKCVEISCKSPDVINGSPISQKIIYKENERFQYKCNMGYEYSERGDAVCTESGWRPLPSCEEKSCDNPYIPNGDYSPLRIKHRTGDEITYQCRNGFYPATRGNTAKCTSTGWIPAPRCTLKPCDYPDIKHGGLYHENMRRPYFPVAVGKYYSYYCDEHFETPSGSYWDHIHCTQDGWSPAVPCLRKCYFPYLENGYNQNYGRKFVQGKSIDVACHPGYALPKAQTTVTCMENGWSPTPRCIRVKTCSKSSIDIENGFISESQYTYALKEKAKYQCKLGYVTADGETSGSITCGKDGWSAQPTCIKSCDIPVFMNARTKNDFTWFKLNDTLDYECHDGYESNTGSTTGSIVCGYNGWSDLPICYERECELPKIDVHLVPDRKKDQYKVGEVLKFSCKPGFTIVGPNSVQCYHFGLSPDLPICKEQVQSCGPPPELLNGNVKEKTKEEYGHSEVVEYYCNPRFLMKGPNKIQCVDGEWTTLPVCIVEESTCGDIPELEHGWAQLSSPPYYYGDSVEFNCSESFTMIGHRSITCIHGVWTQLPQCVAIDKLKKCKSSNLIILEEHLKNKKEFDHNSNIRYRCRGKEGWIHTVCINGRWDPEVNCSMAQIQLCPPPPQIPNSHNMTTTLNYRDGEKVSVLCQENYLIQEGEEITCKDGRWQSIPLCVEKIPCSQPPQIEHGTINSSRSSQESYAHGTKLSYTCEGGFRISEENETTCYMGKWSSPPQCEGLPCKSPPDISHGVVAHMSDSYQYGEEVTYKCFEGFGIDGPAIAKCLGEKWSHPPSCIKTDCLSLPSFENAIPMGEKKDVYKAGEQVTYTCATYYKMDGASNVTCINSRWTGRPTCRDTSCVNPPTVQNAYIVSRQMSKYPSGERVRYQCRSPYEMFGDEEVMCLNGNWTEPPQCKDSTGKCGPPPPIDNGDITSFPLSVYAPASSVEYQCQNLYQLEGNKRITCRNGQWSEPPKCLHPCVISREIMENYNIALRWTAKQKLYSRTGESVEFVCKRGYRLSSRSHTLRTTCWDGKLEYPTCAKR
modifications: N-glycans trimmed to the first GlcNAc residues (EndoHf)
notes: complement factor H (CFH), human, CCPs 1-20, allotypic variant Ile-62, Tyr-402, Asp-936; Expressed from the vector pPICZaB and secreted; also called I62,D936-CFH; IYD-CFH; source: P. pastoris KM71H, secreted, enzymatically deglycosylated, chromatographically purified
As a reminder, the Kd is the equilibrium constant for the complex coming apart. Low readings indicate a tighter complex, high ones a looser complex. Consider B1, for which the Kd with C3b [1] was 1000 to 1300 nM.

B2: S1191L/V1197A-CFH (LA-CFH, on Ile-62 background) (natural protein, human, UniProt P08603 19-1231, looked up)
chain: B1 chain with S1173L, V1179A
modifications: N-glycans trimmed to the first GlcNAc residues (EndoHf)
notes: complement factor H (CFH), human, CCPs 1-20, aHUS-linked double mutation S1191L/V1197A on the background Ile-62, Tyr-402, Asp-936; Expressed from the vector pPICZaB and secreted; the native signal peptide is probably absent; source: P. pastoris KM71H, secreted, enzymatically deglycosylated, chromatographically purified
Consider B2, for which the Kd in the test with C3b [2] was 830 nM and 860 nM.

B3: R53H-CFH (on Ile-62 background) (natural protein, human, UniProt P08603 19-1231, looked up)
chain: B1 chain with R35H
modifications: N-glycans trimmed to the first GlcNAc residues (EndoHf)
notes: complement factor H (CFH), human, CCPs 1-20, aHUS-linked mutation R53H on the background Ile-62, Tyr-402, Asp-936; Expressed from the vector pPICZaB and secreted; the native signal peptide is probably absent; also called R53-CFH; source: P. pastoris KM71H, secreted, enzymatically deglycosylated, chromatographically purified
In the case of B3, the Kd with C3b [1] is 1000 nM; with C3b [2], 1200 nM and 1800 nM.

B4: V62-CFH (recombinant human complement factor H, variant Val-62, Tyr-402, Glu-936) (natural protein, UniProt P08603 19-1231, looked up)
chain: B1 chain with I44V, D918E
modifications: N-glycans trimmed to the first GlcNAc residues (EndoHf)
notes: complement factor H (CFH), human, CCPs 1-20, allotypic variant Val-62, Tyr-402, Glu-936; Expressed from the vector pPICZaB and secreted; also called V62,E936-CFH; recombinant CFH; source: P. pastoris KM71H, secreted, enzymatically deglycosylated, chromatographically purified
The molecule B4 displayed a Kd with C3b [2] of 270 nM. That is a sub-micromolar value.
